For one assay, the system named is MDA-MB-231 cells. The assay is described as follows: Trans-well migration and invasion assay. In kind it is cell-based, human. The conditions noted are these: 1 U/mL, 24 h. The procedure: (§1) Breast cancer cell lines (human MDA-MB-231 cells and mouse 4T1 cells) were used in these studies. Both migration assay and invasion assay were performed in 24 wells Costar (Corning) Trans-well system (polycarbonate membrane inserts, pore size 8.0 μm). Before the assay, the cells were cultivated in appropriate serum free medium for at least 24 h. One day before seeding cells to the upper chambers, 100 μL diluted matrigel was added to the upper chambers of the inserts for invasion assay. Serum free medium (100 μL) was added to the upper chamber used for migration assay. The 24 well plates were incubated in the incubator for overnight. The next day, cells were trypsinized and counted. In the studies, 3×10^4 cells of 4T1 or 5×10^4 cells of MDA-MB-231, with 200 μL appropriate serum free medium, were seeded into the upper chambers. Appropriate complete medium (750 μL) was added to the lower chambers. For the drug treatment group, 1 U/mL His-rhArg (SEQ ID NO: 101) was added to both chambers. The 24 well plates were incubated at 37° C. humidified atmosphere with 5% CO2 for 20 h (4T1 cells) or 24 h (MDA-MB-231 cells).
(§2) After incubation, the medium in the upper chambers was removed. The trans-well inserts were washed with 1×PBS twice. Cold 100% methanol was added to both upper chambers and lower chambers for 10 min to fix the cells. The inserts were washed with 1×PBS for two times. […]

A further assay concerns MCF-7 cancer cells. The assay is described as follows: cells. In kind it is cell-based, human. The conditions noted are these: MCF-7, single agent. The procedure: (§3) Breast cancer cell lines (e.g. human MCF-7 and MDA-MB-231 cells) were used in these studies. Cancer cells (5×10^3 cells) were seeded in 96-well plates (TPP) with […] complete medium. The plates were incubated in incubator overnight and the cells were allowed to adhere to the plates. […] Each dosage was triplicated in 3 wells to obtain the average change of cell viability. […] The plates were put back into the incubator and further incubated for 4 h. To dissolve the insoluble compound, formazan, formed by MTT, 100 μl of 10% SDS in 0.01 M HCl was added. The plates were incubated at 37° C. overnight. The color change was measured by spectrophotometer at 570 nm. Control set up (without any drug) was used as base to calculate percentage of cell viability which was used to plot the dose response curve by the software Prism 6.0 (GraphPad) to find the IC50 values. […] CalcuSyn software (Biosoft) was used for calculating the CI values.

Assay [1] deals with MDA-MB-231 breast cancer cells. The experiment in a line: cells. It counts as cell-based, human. As to conditions: MDA-MB-231, single agent. As to the method: as §3
The next assay has as its system 4T1 cells. The experiment in a line: Trans-well migration and invasion assay. It counts as cell-based, mouse. The conditions noted are these: 1 U/mL, 20 h. The procedure:
as §1, §2

B1: His-rhArg: recombinant human arginase with His tag, SEQ ID NO: 101 (protein)
chain: MHHHHHHMSAKSRTIGIIGAPFSKGQPRGGVEEGPTVLRKAGLLEKLKEQECDVKDYGDLPFADIPNDSPFQIVKNPRSVGKASEQLAGKVAEVKKNGRISLVLGGDHSLAIGSISGHARVHPDLGVIWVDAHTDINTPLTTTSGNLHGQPVSFLLKELKGKIPDVPGFSWVTPCISAKDIVYIGLRDVDPGEHYILKTLGIKYFSMTEVDRLGIGKVMEETLSYLLGRKKRPIHLSFDVDGLDPSFTPATGTPVVGGLTYREGLYITEEIYKTGLLSGLDIMEVNPSLGKTPEEVTRTVNTAVAITLACFGLAREGNHKPIDYLNPPK
modifications: His tag; His-rhArg, Synthesized in Lab
B1: the “number of cancer cells that can migrate and invade via the transwell inserts” value with MDA-MB-231 cells and with 4T1 cells was “decreased” in each case. Further, the results for the IC50 (in the assay with MCF-7 cancer cells; in assay [1]) were 0.7869 U/mL and 0.9522 U/mL, respectively.

These data come from US20200181597A1, “Composition and Application of Arginine-depleting Agents for Cancer, Obesity, Metabolic Disorders, and Related Complications and Comorbidities” (THE HONG KONG POLYTECHNIC UNIVERSITY, priority 2018, published 2020).
